Measurements as given in publication PMC5435347.

Biological target: YFP-MKT1 (Trypanosoma brucei) (UniProt Q587E3)
Test: co-IP; extracts of bloodstream-form trypanosomes immunoprecipitated with anti-GFP (GBP beads) for YFP-MKT1, Western blot for V5 or myc; 100-150 mM NaCl, 2 h at 4°C; with or without RNase; control cells without YFP-MKT1

Chain of UniProt Q587E3 (Q587E3 whole entry): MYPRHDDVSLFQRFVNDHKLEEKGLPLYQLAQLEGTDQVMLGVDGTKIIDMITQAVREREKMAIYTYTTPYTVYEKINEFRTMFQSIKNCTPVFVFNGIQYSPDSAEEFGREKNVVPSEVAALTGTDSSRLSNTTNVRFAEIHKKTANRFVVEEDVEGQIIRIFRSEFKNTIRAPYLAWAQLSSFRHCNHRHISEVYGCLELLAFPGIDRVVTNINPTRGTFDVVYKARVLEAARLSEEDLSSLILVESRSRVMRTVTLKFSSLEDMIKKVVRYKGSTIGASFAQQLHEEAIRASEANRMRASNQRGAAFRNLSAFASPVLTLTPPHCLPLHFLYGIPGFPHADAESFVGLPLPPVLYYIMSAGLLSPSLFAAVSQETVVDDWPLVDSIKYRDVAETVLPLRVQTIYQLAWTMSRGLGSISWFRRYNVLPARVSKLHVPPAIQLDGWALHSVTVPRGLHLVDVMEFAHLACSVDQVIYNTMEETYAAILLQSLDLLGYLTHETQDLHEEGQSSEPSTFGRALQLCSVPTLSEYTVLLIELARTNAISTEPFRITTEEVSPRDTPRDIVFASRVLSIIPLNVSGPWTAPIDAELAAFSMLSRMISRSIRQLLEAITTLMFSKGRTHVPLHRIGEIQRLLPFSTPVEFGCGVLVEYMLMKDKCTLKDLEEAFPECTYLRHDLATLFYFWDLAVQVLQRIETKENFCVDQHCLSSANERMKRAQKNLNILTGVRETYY

Row | proportion pulled down | Substance
1 | < 1% | V5-ZC3H32 (natural protein)
2 | < 1% | ZC3H32-myc (natural protein)
